Test results from US20220056425, “RNA PO[…] FOR […] OF MODIFIED RNA” (GUARDIAN THERAPEUTICS, LLC, published 2022).
Changes are numbered by the printed parent chain.

B1: CT aptamer clone 2 (ssRNA)
RNA: GGGAGAGCAUUGCUCGUUAGUGUCGUCUUGGUAAUUCCCUUUCUGGUCGUUUAAGCUAGUGACUCGGAUCAUCUAGG
B2: CT aptamer clone 5 (ssRNA)
RNA: GGGAGAGCAUUGCUCGUUAGUGUCGUCUCGCGAACGUUAAUCGCGUGGUCGUGAGCUAGUGACUCGGAUCAUCUAGG
B3: CT aptamer clone 3 (ssRNA)
RNA: GGGAGAGCAUUGCUCGUUAGUGUCGUCUUAAACUUCGUGUUUUUGGUCGUUGUAGCUAGUGACUCGGAUCAUCUAGG
B4: CT aptamer clone 4 (ssRNA)
RNA: B3 RNA with A30C, C33U, U34C, U35A, C36U, U38C, G39A, U42G, U53A
B5: CT aptamer clone 10 (ssRNA)
RNA: GGGAGAGCAUUGCUCGUUAGUGUCGUCUCGAGUUGUGAUUACUCGUGGUCGUAAGCUAGUGACUCGGAUCAUCUAGG
B6: CT aptamer clone 1 (ssRNA)
RNA: GGGAGAGCAUUGCUCGUUAGUGUCGUCUCGGAGUUUAUCUCCGUGGUCGUUGAAGCUAGUGACUCGGAUCAUCUAGG
B7: CT aptamer clone 6 (ssRNA)
RNA: B6 RNA with G31A, G33U, U34C, U35G, U36A, U38C, C39U, C41U, G52A
B8: CT aptamer clone 9 (ssRNA)
RNA: GGGAGAGCAUUGCUCGUUAGUGUCGUCUCGGGAUUUUUCCCGUGGUCGUUCAUAGCUAGUGACUCGGAUCAUCUAGG
B9: CT aptamer clone 7 (ssRNA)
RNA: GGGAGAGCAUUGCUCGUUAGUGUCGUCUUGACCUUUGCUGGUCAUGGUCGUAAAGCUAGUGACUCGGAUCAUCUAGG
B10: CT aptamer clone 11 (ssRNA)
RNA: GGGAGAGCAUUGCUCGUUAGUGUCGUCUCAUCGAAUGGUCGGUGUGGUCGUUAAGCUAGUGACUCGGAUCAUCUAGG
B11: CT aptamer clone 8 (ssRNA)
RNA: B10 RNA with C29A, A34G, A35U, G37U, G38U, U39C, G44U, A53G
B12: W2.S1.1_R6P-1 (ssRNA)
RNA: GGGAGAGCAUUGCUCGUUAGUGGAGCCUAUGGUUGUUGUGUGCUCCUCGCGGGAGCUAGUGACUCGGAUCAUCUAGG
modifications: 2'-OMe at all nucleotides
B13: W2.S1.1_R6F-1 (ssRNA)
RNA: GGGAGAGCAUUGCUCGUUAGUGGCGUUACAGCAGUUGCCACAAGGCACGUUUUAGCUAGUGACUCGGAUCAUCUAGG
modifications: 2'-OMe at all nucleotides

These binders were tested against Cholera toxin (holotoxin and/or B subunit) (UniProt P01555;P01555;P01556 P01555:19-212,P01555:213-258,P01556:22-124) (assay: not given).
B1: binds. B2: binds. B3: binds. B4: binds. B5: binds. B6: binds. B7: binds. B8: binds. B9: binds. B10: binds. B11: binds.

These binders were tested against KRAS (UniProt P01116 P01116:1-189) (assay: plate binding compared to BSA; only central region printed).
B12: binds. B13: binds.
